Measurements as given in patent publication US20260356928 (published 2026).

Target: CRMP1 (human, UniProt Q14194)
Assay: ELISA

- EC50: 69 nM
B1: NI-504.3E7 (antibody, V domains shown)
VH: EVQLVETGGGFVQPGGSLQLSCAVSGFPYSGTSFHWVRQVSGKGLEWIGRIRSKSDNYETSYTESLKGRFIVSRDDSKNMVRLHLYSLRTEDTALYYCTTGIIVVDTSYLDHWGRGTLVTVSS
VL: SYELTQPPSASVSPGQTARITCSGAALPKKYAYWYQLKSGQAPVLVIYEDTKRPSGIPERFSGSSSGTLATLTINGALVEDEADYYCYSTDSSGDVWVFGGGTKLTVL
